From the nanobody polyreactivity screen of Harvey et al. (2022) come the findings set out here.

The series is described as follows: yeast display, Sf9 membrane polyspecificity reagent, FACS + sequencing; frameworks hold sequencing errors. Summed up:
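A nanobody's polyreactivity label depends on the gate it was sorted from. Yeast display cells were stained with 10% biotinylated, detergent-solubilized Sf9 membrane reagent for 1 hour at 4 °C, enriched on streptavidin microbeads and sorted by FACS. The low and high (top ~1%) gates were set on anti-HA fluorescence for expression and streptavidin fluorescence for reagent binding.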
Take “QVQLVESGGGLVQAGGSLRLSCAASGRTFLDNAMGWYRQAPGNEWELVATICSSGGTRYYADSVKGSFTISRDNAKNTVYLPMHSQKPEDTAVYYCNALWWGRYYRPYVTPVLGRMEYWGQGTQVTVSS”: the “polyreactivity (PSR sort gate)” value is “low polyreactivity”. The value for “QVQLVESGGGLVQAGGSLRLSCAASGSIFDIYAMGWYRQAPGKERELVAAITNGGSTYADSVKGRFTISRDNAKNTVYLQMNSLKPEDTAVYYCAAYVDQYEYNYWGQGTQVTVSS” was “low polyreactivity”; that for “HVQLVESGGGLVQAGRSLRFSCAASGSIFLYNAMGWYRQAPGKERELVAAISKSGGSTYYADSVKGRFTISRDNAKNTVYLQMNSLKPEDTAVYYCAAGYGRRIRYCSEYDYWGQGTQVTVSS” was “low polyreactivity”; that for “QVQLVESGGGLVQAGGSLRLSCAASGFTFWTYAMGWYRQAPGKERELVAAIDSGGSTYYADSVKGRFTITRDNAKNTVYLQMNSLKPEDTAVYYCNAGPSVTSGYDYDYWGQGTQVTVSS” was “low polyreactivity”.

Regarding “QVQLVESGGGLVQAGGSLRLSCAASGSTLDYNAMGWYRQATGKERELVAAINWSGGRTYYADSVKGRFTISRDNAKNTVYLQMNSLKPEDTAVYFCAAVDYKAKGYGYWGQGTQVTVSS”, the “polyreactivity (PSR sort gate)” value was “high polyreactivity”. With “QVQLVESGGCLVQAGGSLRLSCAASGNTLRTYGMGWYRQAPGKESEFVAAITYSGGSTYYADSVKGRFTISRDNAKNTVYLQMNSLKPEDTAVYYCAARYRSHYRRITPYDSWGQGTQVTVSS”, the “polyreactivity (PSR sort gate)” value is recorded as “high polyreactivity”. The value for “QVQLQGSGGGLVQAGGSLRLSCAASGNIFDADIMGWYRQAPGKESELVASITDGGSTNYADSVKGRFTISRDNAKNTVYLQMNSLKQVDTAVYYCAAIAYPDIPTYFDYDSDCFYWSQGTQVTVSS” was “high polyreactivity”; that for “QVQLVESGGGLVQAGGTLRLSCAASGRTFGTYAMGWYRQEPGKERELVAAIRSNAGSTYYADSVKGRFTISRDNAKNTVYLQMNSLKPEDTAVYYCAKSYPSSRRYNFWGQGTQVTVSS” was “high polyreactivity”. Next, “QDQLEESGGGLVQAGGSLRLSCAASGRTFIYYAMGWYRQAPGKERELVAAITRSGGITNYADSVKGRFTISRDNSKNTVYLQMNSLKTEDTEVYYCAARFYGRRCIYGYWGQGTQVTVSS”: “high polyreactivity”; “QVQLVESGGGLVQAGGSLRLSCAASGRTFGYNAMGWYRQAPGKERELVAVIRSGGSTSYADSVKGRFTISRDNAKNTVYLQMNSLKPEDTAVYYCAATGLYNVTSPYSYKYDYWGQGTQVTVSS”: “low polyreactivity”; “QVQLVESGGGLVQAGGSLRLSCAASGSIFYANAMGWYSQAPGKERELVAVISSGGGTYADSVKGRFTISRDNAKNTVYLQMNSLKPEDTAVYYCAADYTRESSMYYWGQGTQVTVSS”: “low polyreactivity”. Next, “QVQLVESGGGLVQAGGSLRLSCAASGRIYGVYVMGWYRQAPGKERELVAAISWSGSHTYYADSVKGRFTISRDNAKNTVYLQMNSLKPEDTAVYYCKADSYPDYTGPGLDWYDYWGQGTQVTVSS”: “low polyreactivity”. “QVQLVESGGGLVQAGGSLRLSCAASGITFFTYGLGWYRQAPGKERELVASINWSGGTYYADSVKGRFTISRDKAKNTVYLQMNSLKPEDTAVYYCAAETHVESGSRDFYTEDYWGQGTQVTVSS”: the “polyreactivity (PSR sort gate)” value is “low polyreactivity”. Turning to “QVQLVESGGGLVQAGGSLRLRCAASGSIFVYYAMGWYRQAPGKERELVAAITWRGDNTYYADSVKGRFTISRDNAKNSVYLQMNSLKPEDTAVYYCAADSYTSIFDYWGQGTQVTVSS”, the “polyreactivity (PSR sort gate)” value is on record as “low polyreactivity”.

Consider “QVQLVESGGGLVQAGGSLRLSCAASGYTFRAYAMGWYRPAPGKERELVAAISRRGGSTYYADSVKGRFTISRDNAKNTVYLQMNSLKPEDTAVYYCAADFRSEHAEDYWGQGTQVTVSS”, for which the “polyreactivity (PSR sort gate)” value is reported as “high polyreactivity”.

Regarding “QVQLVESGGGLVQAGGSLRLSCAASGRIFRFYAMGWYRQAPGKERELVAAITRNVGSTFYADSVKGRFTISRDNAKNTVYLQMNSLKPEDTAVYYCAAESDYYYRYTFDYWGQGTQVTVSS”, the “polyreactivity (PSR sort gate)” value was “low polyreactivity”. Next, “QVHLVESGGGLVQAGGSLRLSCAASGRTFRSNAMGWYRQAPGKEREFVAAISGRGGITYYADSVKGRFTISRDNAKNTVYLQMNSLKPEDTAVYYCNRDVKYHDYVYVTAIKSPGYNYWGQGTQVTVSS”: “low polyreactivity”; “QVQLVESGGGLVQAGGSLRLSCAASGRIFPYYDMGWYRQAPGKEMELVATITWRGGITYYADSVKGRFTISRDNAKNTVYLQMNSLKPEDTAVYYCAVRKVYRSSFDYWGQGTQVTVSS”: “high polyreactivity”; “QVQLVESGGGLVQAGGTLRLSCAASGRTFNGNAMGWYRQAPGKERELVAAISGGSTSYADSVKGRFTISRDNAKNTVYLQMNSLKPEDTAVYYCAATYIRRTIFRYNSWGQGTQVTVSS”: “low polyreactivity”.

On to “QVQLVESGGGLVQAGVSLRLSCAASGRTFVHYTMGWSRQSPGKERELVATISTSGGSTSYADSVKGRFTISRDNAKNTVYLQMNSLKPEDTAVYYCAARWYFPDRVKYDYWGQGTQVSVSS”, for which the “polyreactivity (PSR sort gate)” value was “low polyreactivity”.

With “QVQLVESGGGLVQAGGSLRLSCAASGYTFYENAMGWYRQAPGKERELVAAITSDGSTYYADSVKGRFTISRDNAKNTVYLQMNSLKPEDTAVYYCAVDEAPPELVYWFFTYYYGGQGTQVTVSS”, the “polyreactivity (PSR sort gate)” value is reported as “low polyreactivity”. The value for “QVQLVESRGGLVQAGGSLRLSCAASGRNFKANTMGWYRQAPGKERVVVAAITASGGTTYYADSVKGRFTISRDNAKNTVYLQMTSLKPEDTAVYYCAAAVWYRGWYRYEYWGQGSQVTVSS” was “low polyreactivity”; that for “QVQLVESGGGLVQAGGSLRLSCAASGRIFGRNAMGWYRQAPGKERELVAGISSGGTTDYADSVKGRFTISRDNAKNTVYLQMNSLKPEDTAVYYCNDGYAYDDQTYYLGESDYWGQGTQVTVSS” was “low polyreactivity”; that for “QVQLVESGGGLVQAGGSLRLSCAASGGTFYYNAMGWYRQAPGKERELVAAITSGDRTYYADSVKGRFTISRDNAKYTVYLQMNSLKPEDTAVYYCAARWFRSNKYWGQGTQVTVSS” was “high polyreactivity”. Next, “QVQLVESGGGLVQAGGSLRLSCAASGFIFSTYAMGWYRQAPGKERELVAAITRGGRTYYADSVKGRFTISRDNAKNTVYLQMNSLIPEDTAVYYCAVFVHGDYWGQGTQVTVSS”: “high polyreactivity”; “QDHLVESGGGVVQAGGSLRLSCAATGSTIYRYPMGSYRQAPGNERELVAAISTRGGSTYYADSVKGRFTISRDNRKNTVYLQMNSLKPVDTAVYYCAAKCGSPDDYDYWGQGTQVTVSS”: “high polyreactivity”.

As for “QVQLQESGGGLVQARGSLRLSCAASGTISQEDCMGWYRQAPGKVREFVAAIGLGSNTNYADRLKGRFTISRDNAKNTVYLQMNSLKTEDTAVYYCAVSVWQYSDHVYRGQGTQVTVSS”, the “polyreactivity (PSR sort gate)” value was “low polyreactivity”.

On to “QVQLVESGGGLVQAGGSLRFSCAASGGIFFRNAMVWYRQAPGKEREFVAVISSGGSTYYADSVKGRFTISRDNAKNTVYLQMNSLKPEDTAVYYCAARRKRPGYTVTLHYPYNYWGQGTQVTVSS”, for which the “polyreactivity (PSR sort gate)” value is reported as “high polyreactivity”.

“QVQLVESGGGLVQAGGSLRLSCAASGFTFGRNAMGWYRQAPGTERELVARITTGGSTNYADSVKGRFTISRDNAKYTVYLQLNSLKPEDTAVYYCAATYVSLALFWTYGYWGQGTQVTVSS”: the “polyreactivity (PSR sort gate)” value is on record as “low polyreactivity”.

In the case of “QVQLVESGGGLVQAGGRLRLSCAASGRTVNQYAMGWYRQAPGKERELVAAISWSGGRTYYADSVKGRFTISRDNDKNTDYLQMNSLKPEDTAVYYCNKLTRDGRKEDYWGQGTQVTVSS”, the “polyreactivity (PSR sort gate)” value is “high polyreactivity”.

“QVQLVESGGGLVQAGGSLRLSCAASGSIFGRNAMGWYRQAPGKERELVARISSRGGSTYYADSVKGRFTISRDNAKNTVYLQMNSLKPEDTAVYYCNRDRTWQTNDYWGQGTQVTVSS”: the “polyreactivity (PSR sort gate)” value is “high polyreactivity”. Next, “QVQLVESGGGLVQAGGSLRLSCAASGRTFGRNDMAWYRQAQGKERELVAGISIGGGTTYYADSVKGRFTISRDNAKNTVYLQMNSLKPEDTAVYYCAARSWSYLHRYGYWGQGTQVTVSS”: “high polyreactivity”. The value for “QVQLVESGGGLVQAGGSLRLSCAASGSIFGYYTMGWYRQAPGKERELVAAISSSGGRTYYADSVKGRFTISRDNAKNTVYLQLNSLKPEDTAVYYCAAVPIKRGLILGDRGYNYWGQGTQVTVSS” was “high polyreactivity”; that for “QVQLVESGGGLVQAGGSLRLTCAASGGTFVYNAMGWYRKAPGKERELVAAISRGGTRTYYADSVKGRFTISRDNAKNTVYLQMNSLKPEDTAVYYCNAEVNTNYRIADYDYWGQGTQVTVSS” was “high polyreactivity”; that for “QVQLVESGGGLVQAGCSLRLSCSASGSIFRNNAMGWYRPAHGKERELVAAITSTGTGTYYADSLKGRFTISRDNAKNTVYLQMNSLKPEDTAVYYCSVDDDFEFVYWGQGTQVTVSS” was “low polyreactivity”. For the sequence “QVQLQESGGGLVQVGGSQRLSCAASGNIFYNYAMGWYRHAQGKEREFDATINHGTSINYADSVKGRFTISRDNAKNTVYLQMNSLKPEDTAVYYCAARVVRYGYKYYYWGQGTQVTVSS”, the “polyreactivity (PSR sort gate)” value was “low polyreactivity”. Next, “QVQLVESGGGLVQAGGSLRLSCAASGRTFQYNAMGWYRQAPGKQWELVAAISSSGGSTYYADSVKGRFTISRDNAKITVYLKMNSLKPEDTAVYYCNAYSQSWNFYGDGDYWGQGTQVTVSS”: “low polyreactivity”; “QVQLVESGGGLVQAGGSLRLSCAASGSTFKYNAMGWYRQAPGKEREFVAAISYSGGSTYYADSVKGRFTISRDYAKNTVYLQMNSLKPEDTAVYYCAAYPWERYTWRYVYRGHDYWGQGTQVTVSS”: “low polyreactivity”. With “QVQLVESGGGLVQAGGSLRLSCAASGSIVVRNAMGWYRQAPGKERELVAAITYRGGSTYYADSVKGRFTISRDNAKNTVYLQMNSLNPEDTAVYYCFDVNTDVLSRVYRGWGYYYWGQGTQVTVSS”, the “polyreactivity (PSR sort gate)” value is recorded as “low polyreactivity”. For “QVQLVESGGGLVQAGGSLRLSCASSGRTFFRNPMGWYRQAPGKERELVAAISKRGGSTYYADSVKGRFTISRDNAKNTVYLQMISLSPEDTAVYYCNADPRTVGLDYWGQGTQVTVSS”, the “polyreactivity (PSR sort gate)” value is “high polyreactivity”.
